Reference: patent US20220119517A1

Columns and labels:
[1] = target: human Claudin18.2 (CLDN18.2), full length, on cells (human); assay: FACS on NUGC4 cells
[2] = target: human Claudin18.2 (CLDN18.2), full length, on cells (human); assay: cell-based or functional assay
[3] = target: human Claudin18.1 (CLDN18.1), full length, on cells (human) (UniProt P56856); assay: FACS on CHO-K1-CLDN18.1 cells

In the case of “human IgG1, kappa isotype control antibody”, the MFI (CLDN18.2) [1] is reported as 93 MFI, the ADCC cytotoxicity by LDH method, PBMC effectors, Max (%) [2] is reported as 52% and the in-vitro ADCC activity, Jurkat-CD16A/NF luciferase reporter, EC50 [2] is reported as 13.5 nM. For the same substance, the in-vitro ADCC activity, Jurkat-CD16A/NF luciferase reporter, Top [2] was 6190 and the MFI (CLDN18.1) [3] was 219 MFI.
